Assay: yeast display, Sf9 membrane polyspecificity reagent, FACS + sequencing; frameworks hold sequencing errors
How it was run: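 A synthetic nanobody library was expressed on Saccharomyces cerevisiae BJ5465 by galactose induction for 36–48 hours. The library was stained for 1 hour at 4 °C with 10% biotinylated, detergent-solubilized Sf9 membrane reagent and enriched with streptavidin microbeads before FACS. Low and high (top ~1%) gates were set on anti-HA fluorescence for expression and streptavidin fluorescence for reagent binding, and each polyreactivity label reflects the gate of origin.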

| Sequence | polyreactivity (PSR sort gate) |
| --- | --- |
| QVQLVESGGGLVQAGGSLRLSCAASGSIFGRYAMGWYRQAPGKERELVAAISSSGGRTYYADSVKGRFTISRDNAKNTVYLQMNSLKPEDTAVYYCNAGTPYRGDYWGQGTQVTVSS | high polyreactivity |
| QVQLVESGGGLVQAGGSLRLSCAASGSIFGRYAMGWYRQAPGKERELVASITRGAGSTYYADSVKGRFTISRDNAKNTVYLQMNSLKPEDTAVYYCRLAPRYRKGGYWGQGTQVTVSS | high polyreactivity |
| QVQLVESGGGLVQAGGSLRLSCAASGSIFGRYGMVWSRPAPGKERELVAAITSATRTNYADSVKGRFTISRDNAKNTVYLQMNSLKPEDTAVYYCAKQTYRRLPQTPYNYWGQGSQVTVSS | low polyreactivity |
| QVQLVESGGGLVQAGGSLRLSCAASGSIFGRYVMGWYRQAPGKERELVAAINRSGGRTYYADSVKGRFTISRDTAKNTVYLQMNSLKPEDTAVYYCATYTRSSASKEVPYDYWGQGTEVTVSS | high polyreactivity |
| QVQLVESGGGLVQAGGSLRLSCAASGSIFGSNAMGWYRQAPGKERELVAAISYRGGSTYYADSVKGRFTISRDNAKNTVYLQMNSLKPEDTAFYYCAKVSSYKPYDYWGLGTQVTVSS | low polyreactivity |
| QVQLVESGGGLVQAGGSLRLSCAASGSIFGSNAMGWYRQAPGKERELVAAITNTGRTNYADSVKGRFTISRDNAKNTVYLQMNSLKPEDTAVYYCNTDCYEFTHFVGGWYQIIDYDYWGQGSQVTVSS | low polyreactivity |
| QVQLVESGGGLVQAGGSLRLSCAASGSIFGSNAMGWYRQSPGKERELVAAISRSGGSTYYADSVKGRFTISRDNAKNTVYLQMNSLKPEDTAVYYCAVVASRSHTETPEYDFWGQVTQVTVSS | low polyreactivity |
| QVQLVESGGGLVQAGGSLRLSCAASGSIFGSNTMGWYRQAPGKERELVAAINSSGGSTYYADSVKGRFTISRDNAKNTVYLQMNSLKPEDTEVYYCNAASYRFFPYLYYYWGQGTQVTVSS | high polyreactivity |
| QVQLVESGGGLVQAGGSLRLSCAASGSIFGSYAMGWYRQAPGKERELVAGITYRGSSTYYADSVKGRFTISRDNAKNTVYLQMNSLKPEDTAVYYCAADPVFDEYDYWGQGTQVTVSS | low polyreactivity |
| QVQLVESGGGLVQAGGSLRLSCAASGSIFGSYAMGWYRQAPGKERELVASITRVDSTNYADSVKGRFTISRDNAKNTVYLQMNSLKPEDTAVYYCNAGSRTTAGGMDSWGQGTQVTVSS | low polyreactivity |
| QVQLVESGGGLVQAGGSLRLSCAASGSIFGSYAMGWYRQAPGKERSTYYADSVKGRFTISRDNAKNTVYLQMNSLKPEDTAVYYCAADTYGYQGSAGGHWGQGTQVTVSS | low polyreactivity |
| QVQLVESGGGLVQAGGSLRLSCAASGSIFGSYDMGWYRQAPGKERELVAAISEGGGSTYYADTVKGRFTISRDNAMNTVYLQMYSLKPEDTAVYYCAADLILSYYPYYQDYYWGQGTQVTVSS | low polyreactivity |
| QVQLVESGGGLVQAGGSLRLSCAASGSIFGSYTMGWYRQAPGKERELVAAINASGGRTYYADSVKGRFTISRDNAKNTVYLQMNSLKPEDTAVYYCNKATYYQTYDYWGQGTQVTVSS | high polyreactivity |
| QVQLVESGGGLVQAGGSLRLSCAASGSIFGSYTMGWYRQAPGKERELVAVINWSGDRTYYADSVKGRFTISRDNAKNNVYLHMNSLKPEDTAVYYCAARERAGYSGIRYNYWGQGSQVTVSS | low polyreactivity |
| QVQLVESGGGLVQAGGSLRLSCAASGSIFGTNAMGCYRQAPGKERELVAAIDGGSTTYYADSVKGRFTISRDNAKNTVYLQMNSLKPEDTAVYYCAADGTRSLNYAGYAGYEYWGQGTQVTVSS | low polyreactivity |
| QVQLVESGGGLVQAGGSLRLSCAASGSIFGTNAMGWYRQAPGKERELVAAIDGGSTTYYADSVKGRFTISRDNAKNTVYLQMNSLKPEDTAVYYCAADGTRYLNYEGYAGYEYWGQGTQVTVSS | low polyreactivity |
| QVQLVESGGGLVQAGGSLRLSCAASGSIFGTNAMGWYRQAPGKERELVAAINWSGGTTYYADSVKGRFTISRDNAKNTVYLQMNSLKPEDTAVYYCATVFFVLPPTRFDSWGQGTQVTVSS | low polyreactivity |
| QVQLVESGGGLVQAGGSLRLSCAASGSIFGTNAMGWYRQAPGKERELVATITSAGSTYYADSVKGRFTISRDNAKNTVYLQMNSLKPEDTAVYYCARQATGYVYREYDYWGQGTQVTVSS | low polyreactivity |
| QVQLVESGGGLVQAGGSLRLSCAASGSIFGTNGMGWYRQAPGKERELVAAITRRGGSTYADSVKGRFTISRDNAKNTVYLQMNSLKPEDTAVYYCAVDQGYVVRLAWIYGYWGQGTQVTVSS | low polyreactivity |
| QVQLVESGGGLVQAGGSLRLSCAASGSIFGTYAIGWDRQAPGKERELVAAISRGGRTYYADSVKGRFTISRDNAKNTVYLQMNSLKPEDTAVYYCAARTVGLRGYYYWGQGTQVTVSS | high polyreactivity |
| QVQLVESGGGLVQAGGSLRLSCAASGSIFGTYAMGWYRQAPGKEREFVAAISWADGSTYYADSVKGRFTISRDNAKNTVYLQMNSLNPEDTAVFYCAVRRVGSIYIDRYIYVVADYDYWGQGTQVTVSS | low polyreactivity |
| QVQLVESGGGLVQAGGSLRLSCAASGSIFGTYAMGWYRQAPGKEREFVAAISWSDGSTYYADSVKGRFTISRDNAKNTVYLQMNSLKPEDTAVYYCAAKSDPYRHDYWGQGTQVTVSS | low polyreactivity |

| Sequence | polyreactivity (PSR sort gate) |
| --- | --- |
| QVQLVESGGGLVQAGGSLRLSCAASGSIFGTYAMGWYRQAPGKERELVAAISWSDGSTYYADSVKGRFTISRDNAKNTVYLQMNSLKPEDTAVYYCAKVYRSIGPNVSRYGLSYYYWGQGSQVTVSS | low polyreactivity |
| QVQLVESGGGLVQAGGSLRLSCAASGSIFGVNAMGWYRQAPGKERELVAAISNSGVRKYYADSVKGRFTISRDNAKNTVYLQMNSLKPEDTAVYYCARTYQVGDSIDDYWGQGTQVTVSP | low polyreactivity |
| QVQLVESGGGLVQAGGSLRLSCAASGSIFGVYVMGWYRQAPGKERELVAAITRGASTNYADSVKGRFTISRDNAKNTVYLQMNSLKPEDTAVYYCAARQVSVSGHQYGYWGQGTQVTVSS | low polyreactivity |
| QVQLVESGGGLVQAGGSLRLSCAASGSIFGWNAMGWYRQAPGKERELVAAISSGGSTYYADSVKGRFTISRDNAKNTVSLQMNSLKPEDTAVYYCNAYFQYYDYWGQGTQVTVSS | low polyreactivity |
| QVQLVESGGGLVQAGGSLRLSCAASGSIFGWNAMGWYRQAPGKERELVASITWSGGRTYYADSVKGRFTISRDNAKNTVYLQMNSLKPEDTAVYYCAARGYTVWDDYWGQGTQVTVSS | high polyreactivity |
| QVQLVESGGGLVQAGGSLRLSCAASGSIFGWNTMGWYRQAPGKERELVASISRRGGSTHYADSVKGRFTISRDNAKNTVYLQMNSLKPEDTAVYYCAKVRYQGNGGYYWGQGTQVTVSS | high polyreactivity |
| QVQLVESGGGLVQAGGSLRLSCAASGSIFGWYAMGLYRQAPGKERELVAAITFSSVSTYYADSVKGRFTISRDNAKNTVYLQMNSLKPEVTAVYYCGAVVYYTFDYWVQGTQVTVSS | low polyreactivity |
| QVQLVESGGGLVQAGGSLRLSCAASGSIFGWYAMGWYRQAPGKERELVADISYIGVSTYYADSVKGRFTISRDNAKNTVYLQMNTLKPEDTAVYYCATYYLLYPIPYGYPRSPEYEYWGQGTQVTVSS | low polyreactivity |
| QVQLVESGGGLVQAGGSLRLSCAASGSIFGWYAMGWYRQAPGKERELVASIRKSGGSTYYADSVKGRFTISRDNAKNTVYLQMNSLKPEDTAVYYCAAERYKNGAGQRKYAYDYWGQGTQVTVSS | high polyreactivity |
| QVQLVESGGGLVQAGGSLRLSCAASGSIFGWYAMRSYRQAPGKATELVASISGSGGSTYYADSVKGRFTISRDNAKNTVYLQMNSLKPEDTAVYYCAADYALSSLPFDYWGQGTQVTVSS | high polyreactivity |
| QVQLVESGGGLVQAGGSLRLSCAASGSIFGYAMGWYRQAPGKERELVAAISFSGVSTYYADSVKGRFTISRDNAKNTVYLQMNSLKPDDTAVYYCATDRFYYRTGYDPYYYWGQGTQVTVSS | low polyreactivity |
| QVQLVESGGGLVQAGGSLRLSCAASGSIFGYNAMGWYRQAPATERELVATIRNGGITNYADSVKGRFTISRDNAKNTVYLQMNSLKPEDTAVYYCAADVVQYLYYFRLDYWGQGTQVTVSS | low polyreactivity |
| QVQLVESGGGLVQAGGSLRLSCAASGSIFGYNAMGWYRQAPGKEREFVAAISWSGGRTYYADSVKGRFTISRDNAKNTVYLQMNSLKPEDTAVYYCAAPSRPAPRFDYWGQGTQVTVSS | low polyreactivity |
| QVQLVESGGGLVQAGGSLRLSCAASGSIFGYNAMGWYRQAPGKERELVAAISYSGGSTYYADSVKWRFTISRDNAKNTVYLQMNSLKPEDTAVYYCNKYIRRYLIYGSWGQGTQVTVSS | high polyreactivity |
| QVQLVESGGGLVQAGGSLRLSCAASGSIFGYNAMGWYRQAPGKERELVAVITRSDGSTYYADSVKGRFTISRDNAKNTVYLQMNSLKPEDTAVYYCNAETHVYYWGVVIYEYNYWGQGTQVTVSS | low polyreactivity |
| QVQLVESGGGLVQAGGSLRLSCAASGSIFGYNTMGWYIQAPGKERELVATITRGGSTHYADSVKGRFTISRDNAKNTVYLQMNSLKPEDTAVYYCAATRLSYVRLYRFSQQYYYWGQGTQVTVSS | high polyreactivity |
| QVQLVESGGGLVQAGGSLRLSCAASGSIFGYYAMGWYRQAPGKEREFVAAISWSGGRTTYADSVKGRFTISRDNAKNTVYLQMNSLKPEDTAVYYCAAAARRKFYYWGQGTQVTVSS | high polyreactivity |
| QVQLVESGGGLVQAGGSLRLSCAASGSIFGYYAMGWYRQAPGKERELVAAISSGDSTYADSVKGRFTISRDNAKNTVYLQMNSLKPEDTAVYYCAADEYYTFSSFELRRMDYWGQGTQVTVSS | low polyreactivity |
| QVQLVESGGGLVQAGGSLRLSCAASGSIFGYYAMGWYRQAPGKERELVAAISSGGNTNYADSVKGRFTISRDNAKNTVYLQMNSLKPEDTAVYYCATRARYKRIRYDYWGQGTQVTVSS | high polyreactivity |
| QVQLVESGGGLVQAGGSLRLSCAASGSIFGYYAMGWYRQAPGKERELVAAISVRGGSTYYADSVKGRFTISRDNAKNTVYLQMNSLKPEDTAVYYCAARISYSLSYWGQGTQVTVSS | high polyreactivity |
| QVQLVESGGGLVQAGGSLRLSCAASGSIFGYYAMGWYRQAPGKERELVARISYSGGTTYYADSVKGRFTISRDNAKNTVYLQMNSLKPEATAVYYCNARIPYSWRYGYWGQGTQVTVSS | high polyreactivity |

Source: the nanobody polyreactivity screen of Harvey et al. (2022)
